Measured values from the supplement of paper PMC10065799, “High-throughput profiling of sequence recognition by tyrosine kinases and SH2 domains using bacterial peptide display” (eLife, 2023).

Target: FGFR3 (UniProt P22607)
Assay: phosphorylation enrichment, bacterial display (enrichment ratio); higher = better substrate or ligand; peptides without Tyr show the background
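Further: 11-residue human phosphosite peptides and single-mutation variants displayed on the E. coli surface, counted by deep sequencing, each peptide's frequency after selection divided by its frequency in the unselected input library; frequency after pTyr selection over input frequency; kinase dosed for 20-30% of maximal phosphorylation in three min.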

Chain of FGFR3 (P22607 whole entry, looked up): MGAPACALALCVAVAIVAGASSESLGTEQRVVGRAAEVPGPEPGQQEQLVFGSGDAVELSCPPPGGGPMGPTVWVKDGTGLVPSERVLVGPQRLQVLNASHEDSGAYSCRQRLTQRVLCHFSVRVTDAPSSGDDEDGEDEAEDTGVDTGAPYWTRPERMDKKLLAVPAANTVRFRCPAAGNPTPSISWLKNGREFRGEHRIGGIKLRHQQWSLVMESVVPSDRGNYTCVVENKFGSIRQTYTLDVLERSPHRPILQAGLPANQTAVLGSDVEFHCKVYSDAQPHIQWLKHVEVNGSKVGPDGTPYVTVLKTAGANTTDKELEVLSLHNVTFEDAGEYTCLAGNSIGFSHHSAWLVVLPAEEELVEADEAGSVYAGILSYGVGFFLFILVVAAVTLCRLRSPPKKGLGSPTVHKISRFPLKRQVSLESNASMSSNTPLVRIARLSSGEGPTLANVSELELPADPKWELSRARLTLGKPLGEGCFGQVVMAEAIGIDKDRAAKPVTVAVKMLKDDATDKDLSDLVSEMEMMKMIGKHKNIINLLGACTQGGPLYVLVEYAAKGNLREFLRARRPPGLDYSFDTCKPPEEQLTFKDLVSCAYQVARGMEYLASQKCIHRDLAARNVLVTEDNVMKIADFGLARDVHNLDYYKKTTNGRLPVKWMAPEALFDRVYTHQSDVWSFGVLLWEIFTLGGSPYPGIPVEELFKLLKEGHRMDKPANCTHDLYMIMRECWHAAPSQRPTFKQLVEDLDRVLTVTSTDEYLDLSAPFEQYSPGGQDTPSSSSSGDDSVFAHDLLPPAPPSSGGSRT

First: LSDGPYSNSYE [EPOR_Y485_P488S]
Second: MDQAEYQAKIR [DHX58_Y518]
The phosphorylation enrichment of the first is higher: 1.02 for the first, 0.412 for the second.

Compared with SADIAYNFRHG [PAH_Y166_F161S_YF], EKQVAYCPSGK [ROS1_Y2323] is higher in phosphorylation enrichment: 0.469 for the first, 0.505 for the second.

Going from EVGRVYLFLQP [ITGA2B_Y360] to DGTGHYLCNAC [GATA5_Y208], the phosphorylation enrichment falls from 0.676 to 0.416.

Compared with IGKAGYTDKMV [ENO1_Y236_V240M], EFDRLYEEFTR [PIK3R1_Y467_YF] is higher in phosphorylation enrichment: 0.367 for the first, 0.807 for the second.

First: EEKKKYYDTKI [CASP5_Y103]
Second: DLSEVYKPCRK [CCDC93_Y176_R179C]
The phosphorylation enrichment of the first is lower: 0.515 for the first, 0.668 for the second.

First: LCRYGYANTSE [SI_Y1233]
Second: LHSEAYLKYNE [PBRM1_Y1610_I1614N]
The phosphorylation enrichment of the first is higher: 1.36 for the first, 0.585 for the second.

Going from IPVNGYQPVPA [ROR2_Y824_V819I] to KLPYPYDDPFS [GPX2_Y127], the phosphorylation enrichment rises from 0.523 to 0.745.

First: AALRLYHVSDS [VIL1_Y256_K254R]
Second: RFVTRYIFNRE [HLA-DQB1_Y62_YF]
The phosphorylation enrichment of the first is lower: 0.763 for the first, 0.796 for the second.

First: LARDMDDKEFF [MET_Y1230_Y1230D_YF]
Second: RIDPDYVGRVR [IGSF9_Y81]
The phosphorylation enrichment of the first is higher: 1.08 for the first, 0.482 for the second.

Compared with KQLYAYKMLMA [TMC2_Y209], MEYLPYGSLRD [JAK2_Y934] is higher in phosphorylation enrichment: 0.496 for the first, 1.02 for the second.

Compared with GKTQQYECKWY [BCR_Y751_D752E], PIFEGYALPHA [ACTA1_Y171_YF] is higher in phosphorylation enrichment: 0.642 for the first, 0.665 for the second.

Going from SLIDGYFRLTE [JAK2_Y372_A377E_YF] to WVFNHYRCIIW [BRCA2_Y2624_W2626C_YF], the phosphorylation enrichment rises from 0.715 to 0.956.

Going from KVITDYYVDMK [MPP4_Y566] to KWKQKYEESQS [MYH6_Y1462_E1457K], the phosphorylation enrichment falls from 2.64 to 0.693.

Compared with QEMMEYRHQIQ [DES_Y324], QEGPEYWDRET [HLA-A_Y83_Q86R] is higher in phosphorylation enrichment: 1.04 for the first, 1.08 for the second.

First: SHSMRYFYTAV [HLA-C_Y31_D33Y]
Second: EPYELYCEMGS [CBL_Y371_Q367P]
The phosphorylation enrichment of the first is lower: 0.893 for the first, 3.14 for the second.

Compared with CTLLPYFSAPV [DGKE_Y269_R273P_YF], SQSKGYRPKLF [SIPA1L3_Y1376_G1371S_YF] is lower in phosphorylation enrichment: 0.826 for the first, 0.42 for the second.

IGGHAYGDQFR [IDH1_Y135_R132G_YF] gave a phosphorylation enrichment of 0.405.

Test system: Fer (mouse)
Assay: as above

Going from LSDGPYSNSYE [EPOR_Y485_P488S] to MDQAEYQAKIR [DHX58_Y518], the phosphorylation enrichment falls from 0.604 to 0.433.

Compared with SADIAYNFRHG [PAH_Y166_F161S_YF], EKQVAYCPSGK [ROS1_Y2323] is lower in phosphorylation enrichment: 0.348 for the first, 0.32 for the second.

Going from EVGRVYLFLQP [ITGA2B_Y360] to DGTGHYLCNAC [GATA5_Y208], the phosphorylation enrichment falls from 0.627 to 0.458.

First: IGKAGYTDKMV [ENO1_Y236_V240M]
Second: EFDRLYEEFTR [PIK3R1_Y467_YF]
The phosphorylation enrichment of the first is lower: 0.3 for the first, 6.18 for the second.

Going from EEKKKYYDTKI [CASP5_Y103] to DLSEVYKPCRK [CCDC93_Y176_R179C], the phosphorylation enrichment falls from 0.465 to 0.453.

Compared with LCRYGYANTSE [SI_Y1233], LHSEAYLKYNE [PBRM1_Y1610_I1614N] is lower in phosphorylation enrichment: 0.746 for the first, 0.311 for the second.

First: IPVNGYQPVPA [ROR2_Y824_V819I]
Second: KLPYPYDDPFS [GPX2_Y127]
The phosphorylation enrichment of the first is lower: 0.337 for the first, 0.434 for the second.

Compared with AALRLYHVSDS [VIL1_Y256_K254R], RFVTRYIFNRE [HLA-DQB1_Y62_YF] is higher in phosphorylation enrichment: 0.531 for the first, 0.615 for the second.

First: LARDMDDKEFF [MET_Y1230_Y1230D_YF]
Second: RIDPDYVGRVR [IGSF9_Y81]
The phosphorylation enrichment of the first is higher: 0.428 for the first, 0.384 for the second.

Compared with KQLYAYKMLMA [TMC2_Y209], MEYLPYGSLRD [JAK2_Y934] is higher in phosphorylation enrichment: 0.384 for the first, 1.25 for the second.

Compared with GKTQQYECKWY [BCR_Y751_D752E], PIFEGYALPHA [ACTA1_Y171_YF] is lower in phosphorylation enrichment: 0.549 for the first, 0.49 for the second.

First: SLIDGYFRLTE [JAK2_Y372_A377E_YF]
Second: WVFNHYRCIIW [BRCA2_Y2624_W2626C_YF]
The phosphorylation enrichment of the first is lower: 0.545 for the first, 0.589 for the second.

Going from KVITDYYVDMK [MPP4_Y566] to KWKQKYEESQS [MYH6_Y1462_E1457K], the phosphorylation enrichment falls from 0.496 to 0.405.

First: QEMMEYRHQIQ [DES_Y324]
Second: QEGPEYWDRET [HLA-A_Y83_Q86R]
The phosphorylation enrichment of the first is lower: 0.303 for the first, 0.92 for the second.

First: SHSMRYFYTAV [HLA-C_Y31_D33Y]
Second: EPYELYCEMGS [CBL_Y371_Q367P]
The phosphorylation enrichment of the first is lower: 0.587 for the first, 3.52 for the second.

Compared with CTLLPYFSAPV [DGKE_Y269_R273P_YF], SQSKGYRPKLF [SIPA1L3_Y1376_G1371S_YF] is lower in phosphorylation enrichment: 0.493 for the first, 0.368 for the second.

IGGHAYGDQFR [IDH1_Y135_R132G_YF] was tested, and the phosphorylation enrichment was 0.259.

Target: Jak2 (UniProt O60674)
Assay: as above

Chain of Jak2 (O60674 whole entry, looked up): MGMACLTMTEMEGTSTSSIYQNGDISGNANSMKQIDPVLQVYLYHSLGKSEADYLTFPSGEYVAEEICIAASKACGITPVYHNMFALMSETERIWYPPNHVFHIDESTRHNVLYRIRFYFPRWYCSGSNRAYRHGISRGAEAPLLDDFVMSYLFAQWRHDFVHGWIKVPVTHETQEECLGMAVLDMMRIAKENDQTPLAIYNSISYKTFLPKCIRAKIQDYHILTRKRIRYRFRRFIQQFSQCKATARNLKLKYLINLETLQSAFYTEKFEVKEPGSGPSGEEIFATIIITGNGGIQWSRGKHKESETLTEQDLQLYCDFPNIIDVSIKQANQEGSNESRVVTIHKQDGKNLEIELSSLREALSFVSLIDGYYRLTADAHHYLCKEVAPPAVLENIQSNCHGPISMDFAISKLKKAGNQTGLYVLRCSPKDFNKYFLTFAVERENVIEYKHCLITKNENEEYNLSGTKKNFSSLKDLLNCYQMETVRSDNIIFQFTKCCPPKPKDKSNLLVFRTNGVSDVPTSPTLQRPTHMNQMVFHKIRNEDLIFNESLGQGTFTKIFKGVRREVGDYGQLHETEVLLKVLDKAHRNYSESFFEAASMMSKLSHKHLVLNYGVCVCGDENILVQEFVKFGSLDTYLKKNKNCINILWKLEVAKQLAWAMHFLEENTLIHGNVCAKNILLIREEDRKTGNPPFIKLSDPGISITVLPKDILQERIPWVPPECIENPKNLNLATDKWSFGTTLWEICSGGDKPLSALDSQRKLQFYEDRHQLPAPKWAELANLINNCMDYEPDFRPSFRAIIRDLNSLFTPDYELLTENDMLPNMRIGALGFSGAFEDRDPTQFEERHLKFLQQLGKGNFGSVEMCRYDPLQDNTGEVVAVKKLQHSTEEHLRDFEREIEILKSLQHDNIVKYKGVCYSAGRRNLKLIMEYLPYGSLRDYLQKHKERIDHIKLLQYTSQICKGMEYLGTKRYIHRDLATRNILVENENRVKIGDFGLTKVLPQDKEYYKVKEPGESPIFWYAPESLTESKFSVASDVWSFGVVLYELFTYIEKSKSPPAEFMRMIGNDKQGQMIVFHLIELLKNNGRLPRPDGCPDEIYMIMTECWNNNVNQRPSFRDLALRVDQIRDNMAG

First: LSDGPYSNSYE [EPOR_Y485_P488S]
Second: MDQAEYQAKIR [DHX58_Y518]
The phosphorylation enrichment of the first is higher: 1.38 for the first, 0.659 for the second.

First: SADIAYNFRHG [PAH_Y166_F161S_YF]
Second: EKQVAYCPSGK [ROS1_Y2323]
The phosphorylation enrichment of the first is lower: 0.574 for the first, 0.638 for the second.

Going from EVGRVYLFLQP [ITGA2B_Y360] to DGTGHYLCNAC [GATA5_Y208], the phosphorylation enrichment falls from 1.3 to 0.681.

Compared with IGKAGYTDKMV [ENO1_Y236_V240M], EFDRLYEEFTR [PIK3R1_Y467_YF] is higher in phosphorylation enrichment: 0.52 for the first, 1.01 for the second.

Compared with EEKKKYYDTKI [CASP5_Y103], DLSEVYKPCRK [CCDC93_Y176_R179C] is lower in phosphorylation enrichment: 0.875 for the first, 0.829 for the second.

First: LCRYGYANTSE [SI_Y1233]
Second: LHSEAYLKYNE [PBRM1_Y1610_I1614N]
The phosphorylation enrichment of the first is higher: 1.11 for the first, 0.744 for the second.

Compared with IPVNGYQPVPA [ROR2_Y824_V819I], KLPYPYDDPFS [GPX2_Y127] is higher in phosphorylation enrichment: 0.533 for the first, 0.954 for the second.

Compared with AALRLYHVSDS [VIL1_Y256_K254R], RFVTRYIFNRE [HLA-DQB1_Y62_YF] is higher in phosphorylation enrichment: 0.734 for the first, 0.921 for the second.

Compared with LARDMDDKEFF [MET_Y1230_Y1230D_YF], RIDPDYVGRVR [IGSF9_Y81] is higher in phosphorylation enrichment: 0.708 for the first, 0.778 for the second.

Going from KQLYAYKMLMA [TMC2_Y209] to MEYLPYGSLRD [JAK2_Y934], the phosphorylation enrichment rises from 0.669 to 1.41.

Compared with GKTQQYECKWY [BCR_Y751_D752E], PIFEGYALPHA [ACTA1_Y171_YF] is lower in phosphorylation enrichment: 0.97 for the first, 0.717 for the second.

Compared with SLIDGYFRLTE [JAK2_Y372_A377E_YF], WVFNHYRCIIW [BRCA2_Y2624_W2626C_YF] is lower in phosphorylation enrichment: 4.29 for the first, 1.41 for the second.

Going from KVITDYYVDMK [MPP4_Y566] to KWKQKYEESQS [MYH6_Y1462_E1457K], the phosphorylation enrichment falls from 1.4 to 0.85.

First: QEMMEYRHQIQ [DES_Y324]
Second: QEGPEYWDRET [HLA-A_Y83_Q86R]
The phosphorylation enrichment of the first is lower: 2.03 for the first, 2.21 for the second.

First: SHSMRYFYTAV [HLA-C_Y31_D33Y]
Second: EPYELYCEMGS [CBL_Y371_Q367P]
The phosphorylation enrichment of the first is lower: 1.2 for the first, 1.61 for the second.

Compared with CTLLPYFSAPV [DGKE_Y269_R273P_YF], SQSKGYRPKLF [SIPA1L3_Y1376_G1371S_YF] is lower in phosphorylation enrichment: 1.19 for the first, 0.5 for the second.

IGGHAYGDQFR [IDH1_Y135_R132G_YF] was tested, and the phosphorylation enrichment was 0.499.

Target: Fyn (UniProt P06241)
Assay: as above

Chain of Fyn (P06241 whole entry, looked up): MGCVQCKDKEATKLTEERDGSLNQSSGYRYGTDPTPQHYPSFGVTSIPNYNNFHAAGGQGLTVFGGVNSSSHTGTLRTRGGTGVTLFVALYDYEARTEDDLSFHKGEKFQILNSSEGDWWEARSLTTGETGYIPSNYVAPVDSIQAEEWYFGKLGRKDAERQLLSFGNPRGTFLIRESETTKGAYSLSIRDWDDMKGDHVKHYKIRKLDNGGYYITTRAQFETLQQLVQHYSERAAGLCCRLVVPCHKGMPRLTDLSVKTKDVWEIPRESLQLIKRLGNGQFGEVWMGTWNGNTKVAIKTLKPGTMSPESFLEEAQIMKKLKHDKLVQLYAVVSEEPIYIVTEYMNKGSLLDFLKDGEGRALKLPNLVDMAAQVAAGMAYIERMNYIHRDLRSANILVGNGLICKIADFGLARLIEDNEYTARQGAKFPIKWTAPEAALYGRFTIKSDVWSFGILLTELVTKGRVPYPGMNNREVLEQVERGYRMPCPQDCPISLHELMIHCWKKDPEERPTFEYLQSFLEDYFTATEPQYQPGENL

First: LSDGPYSNSYE [EPOR_Y485_P488S]
Second: MDQAEYQAKIR [DHX58_Y518]
The phosphorylation enrichment of the first is higher: 0.59 for the first, 0.477 for the second.

Going from SADIAYNFRHG [PAH_Y166_F161S_YF] to EKQVAYCPSGK [ROS1_Y2323], the phosphorylation enrichment falls from 0.416 to 0.383.

Going from EVGRVYLFLQP [ITGA2B_Y360] to DGTGHYLCNAC [GATA5_Y208], the phosphorylation enrichment rises from 0.379 to 0.396.

Compared with IGKAGYTDKMV [ENO1_Y236_V240M], EFDRLYEEFTR [PIK3R1_Y467_YF] is higher in phosphorylation enrichment: 0.33 for the first, 7.47 for the second.

Going from EEKKKYYDTKI [CASP5_Y103] to DLSEVYKPCRK [CCDC93_Y176_R179C], the phosphorylation enrichment falls from 0.479 to 0.451.

First: LCRYGYANTSE [SI_Y1233]
Second: LHSEAYLKYNE [PBRM1_Y1610_I1614N]
The phosphorylation enrichment of the first is higher: 0.688 for the first, 0.35 for the second.

First: IPVNGYQPVPA [ROR2_Y824_V819I]
Second: KLPYPYDDPFS [GPX2_Y127]
The phosphorylation enrichment of the first is lower: 0.429 for the first, 0.534 for the second.

First: AALRLYHVSDS [VIL1_Y256_K254R]
Second: RFVTRYIFNRE [HLA-DQB1_Y62_YF]
The phosphorylation enrichment of the first is lower: 0.579 for the first, 0.76 for the second.

Compared with LARDMDDKEFF [MET_Y1230_Y1230D_YF], RIDPDYVGRVR [IGSF9_Y81] is higher in phosphorylation enrichment: 0.342 for the first, 0.481 for the second.

First: KQLYAYKMLMA [TMC2_Y209]
Second: MEYLPYGSLRD [JAK2_Y934]
The phosphorylation enrichment of the first is lower: 0.39 for the first, 4.56 for the second.

Compared with GKTQQYECKWY [BCR_Y751_D752E], PIFEGYALPHA [ACTA1_Y171_YF] is higher in phosphorylation enrichment: 0.443 for the first, 0.536 for the second.

Going from SLIDGYFRLTE [JAK2_Y372_A377E_YF] to WVFNHYRCIIW [BRCA2_Y2624_W2626C_YF], the phosphorylation enrichment rises from 0.456 to 0.482.

Going from KVITDYYVDMK [MPP4_Y566] to KWKQKYEESQS [MYH6_Y1462_E1457K], the phosphorylation enrichment falls from 0.557 to 0.481.

Going from QEMMEYRHQIQ [DES_Y324] to QEGPEYWDRET [HLA-A_Y83_Q86R], the phosphorylation enrichment rises from 0.559 to 0.692.

Going from SHSMRYFYTAV [HLA-C_Y31_D33Y] to EPYELYCEMGS [CBL_Y371_Q367P], the phosphorylation enrichment rises from 0.611 to 4.13.

First: CTLLPYFSAPV [DGKE_Y269_R273P_YF]
Second: SQSKGYRPKLF [SIPA1L3_Y1376_G1371S_YF]
The phosphorylation enrichment of the first is higher: 0.518 for the first, 0.417 for the second.

IGGHAYGDQFR [IDH1_Y135_R132G_YF] was tested, and the phosphorylation enrichment was 0.296.
